Data on two molecules can be found in patent US20240091361A1, “T CELL RECEPTORS TARGETING RAS MUTATIONS AND USES THEREOF” (MEMORIAL SLOAN-KETTERING CANCER CENTER, priority 2021, published 2024).

Assay [1] deals with T1, SO3A1 peptide on HLA-A*11:01 (human).
T1 peptide: PVCGADGITY
Description: cytokine release.

The target of assay [2] is T2, EFGM peptide on HLA-A*11:01 (human).
T2 peptide: EVKGKDGVGA
Description: cytokine release.

Assay [3] addresses T3, DNHD1 peptide on HLA-A*11:01 (human).
T3 peptide: TVLGPNGVGK
Description: cytokine release.

Assay [4] concerns the target T4, SOCS7 peptide on HLA-A*11:01 (human).
T4 peptide: GSGGGDGTGK
Description: cytokine release.

The target of assay [5] is T5, ABCF1 peptide on HLA-A*11:01 (human).
T5 peptide: CIVGPNGVGK
Description: cytokine release.

Assay [6] deals with T6, MEIS2 peptide on HLA-A*11:01 (human).
T6 peptide: HYGGMDGVGV
Description: cytokine release.

The target of assay [7] is T7, CO6A3 peptide on HLA-A*11:01 (human).
T7 peptide: GDDGRDGVGS
Nature of the assay: cytokine release.

Assay [8] has as its target T8, CGAT2 peptide on HLA-A*11:01 (human).
T8 peptide: RNVGANGIGY
Description: cytokine release.

The target of assay [9] is T9, AGRIN peptide on HLA-A*11:01 (human).
T9 peptide: PVCGSDGVTY
Description: cytokine release.

Assay [10] addresses T10, COIA1 peptide on HLA-A*11:01 (human).
T10 peptide: GDPGKDGVGQ
Description: cytokine release.

For assay [11], the target named is T11, GEM (also listed as SEQ ID NOs 82, 106, 130, 141) peptide on HLA-A*11:01 (human).
T11 peptide: AVFGAGGVGK
Nature of the assay: cytokine release.

The target of assay [12] is T12, PRA19 peptide on HLA-A*11:01 (human).
T12 peptide: KLFISDGCGY
Nature of the assay: cytokine release.

For assay [13], the target named is T13, PUR2 peptide on HLA-A*11:01 (human).
T13 peptide: LASGTDGVGT
Description: cytokine release.

Assay [14] has as its target T14, NLRP9 peptide on HLA-A*11:01 (human).
T14 peptide: VLEGPDGIGK
Description: cytokine release.

Assay [15] addresses T15, KRAS wild type (10-mer) peptide on HLA-A*11:01 (human).
T15 peptide: VVVGAGGVGK
Nature of the assay: cytokine release.

Assay [16] concerns the target T16, CO8A2 peptide on HLA-A*11:01 (human).
T16 peptide: GPPGVDGVGV
Description: cytokine release.

In assay [17] the target is T17, BY55 peptide on HLA-A*11:01 (human).
T17 peptide: RDPGIDGVGE
Nature of the assay: cytokine release.

In assay [18] the target is T18, MEIS1 peptide on HLA-A*11:01 (human).
T18 peptide: HYGGMDGVGI
Nature of the assay: cytokine release.

For assay [19], the target named is T19, SMC5 peptide on HLA-A*11:01 (human).
T19 peptide: MIVGANGTGK
Nature of the assay: cytokine release.

Assay [20] addresses T20, SO5A1 peptide on HLA-A*11:01 (human).
T20 peptide: PVCGSDGITY
Nature of the assay: cytokine release.

Assay [21] concerns the target T21, COBA1 peptide on HLA-A*11:01 (human).
T21 peptide: GPAGQDGVGG
Description: cytokine release.

Assay [22] addresses T22, IBP7 peptide on HLA-A*11:01 (human).
T22 peptide: PVCGSDGTTY
Nature of the assay: cytokine release.

Assay [23] concerns the target T23, SUCB2 peptide on HLA-A*11:01 (human).
T23 peptide: CAIIANGITK
Description: cytokine release.

The target of assay [24] is T24, USH1G peptide on HLA-A*11:01 (human).
T24 peptide: EDGGLDGVGA
Description: cytokine release.

In assay [25] the target is T25, KRAS G12D (10-mer; the same sequence in NRAS G12D and HRAS G12D) peptide on HLA-A*11:01 (human).
T25 peptide: VVVGADGVGK
Nature of the assay: multimer staining.

Assay [26] has as its target T26, TUTLA (also listed as SEQ ID NO 134) peptide on HLA-A*11:01 (human).
T26 peptide: ISQGADGRGK
Description: cytokine release.

Assay [27] concerns the target T27, FRPD4 peptide on HLA-A*11:01 (human).
T27 peptide: KSKLADGEGK
Nature of the assay: cytokine release.

The target in assay [28] is T28, FRPD1 peptide on HLA-A*11:01 (human).
T28 peptide: KVAAADGPAR
Nature of the assay: cytokine release.

The target in assay [29] is T29, PRP4 peptide on HLA-A*11:01 (human).
T29 peptide: ASCAADGSVK
Nature of the assay: cytokine release.

The target of assay [30] is T30, ELP2 peptide on HLA-A*11:01 (human).
T30 peptide: VSAAADSAVR
Nature of the assay: cytokine release.

For assay [31], the target named is T31, TAF6 peptide on HLA-A*11:01 (human).
T31 peptide: GATTADGKGK
Nature of the assay: cytokine release.

Assay [32] has as its target T32, KI26A peptide on HLA-A*11:01 (human).
T32 peptide: PVAGPDGLSK
Description: cytokine release.

In assay [33] the target is T33, DCAF7 peptide on HLA-A*11:01 (human).
T33 peptide: ASVGADGSVR
Nature of the assay: cytokine release.

Assay [34] deals with T34, INO80 peptide on HLA-A*11:01 (human).
T34 peptide: SSLAPDSLVR
Nature of the assay: cytokine release.

B1: TCR 4 (TCR, V domains shown)
Valpha: QKEVEQDPGPLSVPEGAIVSLNCTYSNSAFQYFMWYRQYSRKGPELLMYTYSSGNKEDGRFTAQVDKSSKYISLFIRDSQPSDSATYLCAMGALNSGAGSYQLTFGKGTKLSVIP
Vbeta: KAGVTQTPRYLIKTRGQQVTLSCSPISGHRSVSWYQQTPGQGLQFLFEYFSETQRNKGNFPGRFSGRQFSNSRSEMNVSTLELGDSALYLCASSLSSGTGTEAFFGQGTRLTVV
On to B1, for which the binding result in assay [1], in assay [2], in [3], in assay [4], in assay [5] and in assay [6] was “no recognition” in each case. In addition, the binding result in assay [7], in assay [8], in assay [9], in assay [10], in assay [11] and in [12] was “no recognition” each time. Moreover, the binding result in assay [13], in [14], in [15], in assay [16], in assay [17] and in assay [18] was “no recognition” throughout. In addition, the binding result in assay [19], in [20], in assay [21], in assay [22], in assay [23] and in assay [24] was “no recognition” throughout. The binding result in assay [25] is reported as “recognises”.

B2: TCR 5 (TCR, V domains shown)
Valpha: GEDVEQSLFLSVREGDSSVINCTYTDSSSTYLYWYKQEPGAGLQLLTYIFSNMDMKQDQRLTVLLNKKDKHLSLRIADTQTGDSAIYFCAERDAGNNRKLIWGLGTSLAVNP
Vbeta: GAGVSQSPRYKVAKRGQDVALRCDPISGHVSLFWYQQALGQGPEFLTYFQNEAQLDKSGLPSDRFFAERPEGSVSTLKIQRTQQEDSAVYLCASSLEGGDTQYFGPGTRLTVL
Regarding B2, the binding result in [26], in [27], in [28], in assay [29], in assay [30] and in [31] was “no recognition” in each case. For the same molecule, the binding result in assay [32] is “no recognition”; in [11] it was “no recognition”; in [33], “no recognition”; in assay [15], “no recognition”; in assay [34], “no recognition”; in [25] it was “recognises”.
